From paper PMC4175335, “Thiosulfate Transfer Mediated by DsrE/TusA Homologs from Acidothermophilic Sulfur-oxidizing Archaeon Metallosphaera cuprina*” (The Journal of Biological Chemistry, 2014)

B1: DsrE3A (Mcup_0681) of Metallosphaera cuprina Ar-4, N-terminally His-tagged (natural protein, UniProt F4G1H3 1-133, looked up)
chain: MAQTQTEQAQEEQKKKILIVVTHGPEDLDRTYAPLFMASISASMEYETSVFFMIKGPLLLSKKWQEDERKKGGNPFIHFFDMAKDNNVKMYVCVQSLKDMCHMNESDVVDGIELVGGSTLIDLTLDADRTLFF
notes: DsrE3A, locus Mcup_0681, Metallosphaera cuprina Ar-4; gene amplified from genomic DNA into pET15b; theoretical mass with His tag 17,697 Da; Homotrimer by gel filtration

Tests used:
[1] = molecular target: DsrE3A-C93S with His-tag (Metallosphaera cuprina Ar-4); experiment: SEC; oligomerization analysis, data not shown; proteins incubated with or without 25 μM TCEP at room temperature for 1 h; HiLoad 16/60 Superdex 75; 50 mM Tris-HCl (pH 7.5), 150 mM KCl; 0.5 ml/min
[2] = molecular target: DsrE3A-C93S/C101S with His-tag (Metallosphaera cuprina Ar-4); experiment: as above
[3] = molecular target: DsrE3A-C101S with His-tag (Metallosphaera cuprina Ar-4); experiment: as above
[4] = molecular target: the molecule itself; experiment: as above
[5] = molecular target: B1; experiment: SPR; Biacore 3000, CM5 chip, 25 °C; DsrE3A covalently immobilised (about 1500 RU); TusA as analyte in PBST (PBS, 0.005% Tween 20, pH 7.4), 30 μl/min, 2 min injection, 8 min dissociation; details: both partners purified

Question: With “DsrE3A-C93S with His-tag (natural protein)” as the molecule, how does the stoichiometry N [1] read?
Answer: Its stoichiometry N is 3.

Question: For “DsrE3A-C93S/C101S with His-tag (natural protein)”, which stoichiometry N [2] is on record?
Answer: The stoichiometry N was 3.

Question: Which stoichiometry N [3] does the source give for “DsrE3A-C101S with His-tag (natural protein)” here?
Answer: Its stoichiometry N is 3.

Question: For B1, which “stoichiometry N” value [4] is on record?
Answer: The value was 3.

B2: TusA (Mcup_0683) of Metallosphaera cuprina Ar-4, N-terminally His-tagged (natural protein, UniProt F4G1H5 1-80, looked up)
chain: MAQDVKITKTLDVKGMYCPGPVMETAKAIKQINVGEVLEVLATDPAAKPDIEAWARRTGNQILDIQQQGGVTRILVKRAK
notes: TusA, locus Mcup_0683, Metallosphaera cuprina Ar-4; gene amplified from genomic DNA into pET15b; theoretical mass with His tag 10,895 Da; Occurs as monomers and dimers
Question: With B2 as the molecule, how does the Kd [5] read?
Answer: Its Kd is 0.1 nM.

Question: And the “stoichiometry N” value [4]?
Answer: Its value is 2.
